# In the RNAGym collection of RNA variant scans (doi:10.1073/pnas.2313332121):
# B1: TPR t1 (parent)
# chain: GACCAAUCUGCCCUCAGAGCUCGAGAACAUCUUCGGAUGCAGAGGAGGCAGGCUUCGGUGGCGCGAUAGCGCCAACGUCCUCAACCUCCAAUGCAUCCCACCACAUGAUGAUGCCUGAAGAGCCUUGGUUUUUUG
# Variants of: B1
# Experiment: polymerase ribozyme fitness, log enrichment relative to wild type (log ratio); higher = more active; in vitro selection for triplet polymerase activity
# Summary of the method: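 To select mutant libraries of each subunit of a heterodimeric triplet polymerase ribozyme, built by PCR and transcribed, each was annealed with a biotinylated primer, partner subunit and triplets, then incubated frozen at −7 °C. Extended constructs were gel-excised, captured on streptavidin beads and amplified by RT-PCR, in one round carried out in triplicate. Illumina sequencing of input and output libraries kept genotypes with ≥10 input reads and ≥1 read per output. Fitness is the base-2 logarithm of genotype enrichment relative to wild-type enrichment, from inverse-variance-weighted replicate averages.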
row,Variant,polymerase ribozyme fitness (log ratio)
1,G39U C85A A90G A119U C123G U125G,-1.21
2,C8U C62A,-0.587
3,A37U G47A A68G C80A,-6.59
4,A2C A83U,-1.1
5,C13G G113A A118C,-4.34
6,C4G C56A,-2.34
7,C4U C70U C80A,-5.32
8,C11G C70G C123U,-0.504
9,A6U G71A,-0.461
10,A37C G45C C72U C104G C115G,-7.48
11,U59C A84C,-0.231
12,U7G A111U,-1.87
13,C73U C114U C123A,-3.41
14,A5G C114G,-2.13
15,G36A G61U,0.0512
16,C12A G69C A90U U106A,-4.63
17,A27U C56G A91G U131A U133G,-5.19
18,U78A G113C,-2.57
19,A18U G48C C49A,-3.25
20,G69U G110A U125A G127A,-0.849
21,C73G G120C G128U,-1.34

row,Variant,polymerase ribozyme fitness (log ratio)
1,A74U C102U,-2.82
2,G25U G69U,-4.36
3,A6G G47U G71A,-2.24
4,A6U C22G U87A U92C A121U,-2.63
5,G117A G128C,-3.45
6,C22A C34G,-6.64
7,A46G C56A A100C,-1.41
8,A37U A75U G120C,1.14
9,G39A G61C C72U G117A,-1.82
10,G39U G117U,-3.23
11,U21A A29C,-3.14
12,C53U G60U A121C,1.26
13,U81A A90C U92C,-4.05
14,C13A U21C G57A U59G A75U C86U C97U,-5.71
15,C13A C70G C98U G120A,-2.39
16,C64A A121C,-4.57
17,U106G A119G,0.3
18,G44A G63A C80A G110U C115G,-7.37
19,C8U G71U U78C C98U A119U,-1.03
20,A43U G63C,-2.12
21,C11G G52U A118G C124G,0.453

row,Variant,polymerase ribozyme fitness (log ratio)
1,G10U G69A,-3.09
2,U38A G61U,-0.881
3,C28G A83G U130C,-4.34
4,G45A A50C,-1.09
5,C8G C49G G71A U87A C124U,0.992
6,C53A C72G U92G,-2.94
7,C12G G19A G63U C79G U81G U112C G117U,-7.76
8,A18C C56A C82A C94U U106C,-4.93
9,G60A A100C C104U C123A,-0.726
10,C53A G63A U78C G110U,-3.53
11,C12A U81A,-1.96
12,G45U C53U U130A,-1.99
13,C11U A18U G69U,-0.642
14,U9A G36A,0.00915
15,A6U C20U A37U G61A,-0.862
16,G61U A84U,-0.0265
17,C56A G63A G93A A100C C124U,-4.2
18,C4G U21A A24G A46U U125A,-4.02
19,G71A U130C,0.53
20,C114A G128U,-3.33
21,C12G C64G,-5.49

row,Variant,polymerase ribozyme fitness (log ratio)
1,C11G C40A C76G C86U C114U U125C,-5.11
2,A43U G44A A68U C70A C115A C124A U125C U132A,-6.95
3,G36U C80A,-3.93
4,G113C G127C,-3.73
5,G63A C102U C114A,-6.03
6,C12A A46U,-1.75
7,G71U C99U U129A,-5.39
8,G44A C101A,-2.48
9,C97U C98A,-4.41
10,G58C A111G,0.509
11,C8G U30C G60C,-4.49
12,C56A C88U C124A U133C,2.43
13,G57A U96G A105U C123G G127A,-5.35
14,C53U G69A A84C,-3.13
15,G107C G110A G117A U130C,-6.86
16,U81C C123A,-0.309
17,G61C C89U G113C G120C,-4.9
18,C4A C40U C102G C115A,-6.67
19,A6C C53G G57A C73A C79G G113C,-4.89
20,G17C A43C A83U,-6.26
